Reference: patent US20220098307A1 (WUHAN YZY BIOPHARMA, published 2022)
Changes are numbered by the printed parent chain.

Assays:
[1] = biological target: T1, Human CD3ε (human, UniProt P07766 23-126); assay: flow cytometry, human T cells
T1 construct: CD3 on T cells isolated from human whole blood
Procedure, shortened: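 Mean fluorescence intensity by flow cytometry was plotted against antibody concentration; EC50 came from a one site–specific binding fit. Cells (2×10⁵/well) were incubated with 11-point, 3-fold antibody dilutions starting at 3000 nM for 2 h at 4° C, then with PE anti-human IgG Fc for 1 h.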

[2] = biological target: T2, Monkey CD3 (monkey); assay: flow cytometry, monkey T cells
T2 construct: whole, on cells; also called CD3 of monkey CD3 positive T cells

[3] = biological target: T3, Human BCMA (human, UniProt Q02223 1-54); assay: flow cytometry, human tumor cells (table of the BCMA series)
T3 sequence: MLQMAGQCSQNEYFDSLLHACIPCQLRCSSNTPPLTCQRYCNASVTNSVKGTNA
Excerpt: (§1) 1) Cell preparation: T cells isolated from CD3-positive human whole blood were used for a CD3 end affinity detection of multifunctional antibody molecule; positive tumor cells of corresponding antigen were used for detecting affinity of tumor antigen; for example, CD38-positive MM. 1S cells (purchased from the Cell Resource Center of Shanghai Institutes for Biological Sciences, Chinese Academy of Sciences) or RPMI 8226 cells (purchased from the Cell Resource Center of Shanghai Institutes for Biological Sciences, Chinese Academy of Sciences) were used for CD38 antigen detection, and PD-L1 positive H358 cells (purchased from the Cell Resource Center of Shanghai Institutes for Biological Sciences, Chinese Academy of Sciences) were used for PD-L1 antigen detection, and so on. The cells were resuspended with 1% FBS-PBS, adjusted to a density of 4×10⁶/ml, and 50 μl of cells were taken from each well, and then plated at 2×10⁵ per well. Cell plating was operated on ice
(§2) 2) Addition of the antibody: according to the experimental design, the antibody was diluted gradually, and dilution of antibody was operated on ice. For example, the initial concentration of antibody for dilution was 3000 nM, and the antibody was diluted by 3 times with 11 concentration gradients. The diluted antibody was added to a cell well at 50 μl per well, mixed well, and shaked and incubated at 4° C. 1100 rpm/min for 2 h; after washing, the cells were resuspend in 1% FBS-PBS, and a diluted secondary antibody PE anti-human IgG FC (Biolegend, 409304) was added with a final concentration of 8 ug/ml and a volume of 50 μl/well. At the same time, a well only added with cells and secondary antibody was set as a control, the components were mixed well, and incubated under shaking at 1100 rpm/min at 4° C. for 1 h;
(§3) 5) Data analysis: the data was analyzed by a flow analysis software FlowJo 7.6 thereby obtaining an average fluorescence intensity of the specific antibody concentration, plotted by a Graphpad Prism 5 with the antibody concentration (nM) as an abscissa and the average fluorescence intensity as an ordinate; the EC50 value was calculated by the method of One site—Specific binding, and the EC50 value indicated the cell affinity of the antibody to the corresponding target antigen.

[4] = biological target: T4, human CEA (human, UniProt P06731 35-685); assay: flow cytometry, human tumor cells (table of the CEA series)
T4 sequence: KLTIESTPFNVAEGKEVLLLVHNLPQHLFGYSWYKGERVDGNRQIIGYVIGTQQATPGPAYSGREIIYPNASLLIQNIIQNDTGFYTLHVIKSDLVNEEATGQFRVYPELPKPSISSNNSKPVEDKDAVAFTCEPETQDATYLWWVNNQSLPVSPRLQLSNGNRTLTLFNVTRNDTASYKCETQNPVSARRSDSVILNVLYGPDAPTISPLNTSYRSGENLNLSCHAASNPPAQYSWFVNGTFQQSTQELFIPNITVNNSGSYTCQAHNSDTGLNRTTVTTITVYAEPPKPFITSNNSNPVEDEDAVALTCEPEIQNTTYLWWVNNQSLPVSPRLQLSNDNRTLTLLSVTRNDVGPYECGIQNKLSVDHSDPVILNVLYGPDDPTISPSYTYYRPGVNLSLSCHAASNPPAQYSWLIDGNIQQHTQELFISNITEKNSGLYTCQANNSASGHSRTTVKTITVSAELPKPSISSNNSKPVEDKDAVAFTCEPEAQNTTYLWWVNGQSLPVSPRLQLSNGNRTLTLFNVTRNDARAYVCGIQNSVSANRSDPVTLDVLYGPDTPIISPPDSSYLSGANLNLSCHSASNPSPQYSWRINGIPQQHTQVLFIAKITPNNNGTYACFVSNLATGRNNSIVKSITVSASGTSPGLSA
Excerpt: as §1, §2, §3

B1: M2IC-SG2 (bispecific antibody, human IgG1, kappa)
chain: EVKLDETGGGLVQPGRPMKLSCVASGFTFSDYWMNWVRQSPEKGLEWVAQIRNKPYNYETYYSDSVKGRFTISRDDSKSSVYLQMNNLRVEDMGIYYCTGSYYGMDYWGQGTSVTVSSASTKGPSVFPLAPSSKSTSGGTAALGCLVKDYFPEPVTVSWNSGALTSGVHTFPAVLQSSGLYSLSSVVTVPSSSLGTQTYICNVNHKPSNTKVDKKVEPKSCDKTHTGGGSAAAQVQLVESGGGVVQPGRSLRLSCAASGFTFSTYAMNWVRQAPGKGLEWVARIRSKYNNYATYYADSVKDRFTISRDDSKNTLYLQMNSLRAEDTAVYYCARHGNFGNSYVSWFAYWGQGTLVTVSSGGGGSGGGGSGGGGSQTVVTQEPSLTVSPGGTVTLTCRSSTGAVTTSNYANWVQQKPGQAPRGLIGGTNKRAPGVPARFSGSLLGGKAALTLSGVQPEDEAEYYCALWYSNLWVFGGGTKVEIKGGGGSDKTHTCPPSPAPPVAGPSVFLFPPKPKDTLMISRTPEVTCVVVDVSHEDPEVQFNWYVDGVEVHNAKTKPREEQFNSTFRVVSVLTVVHQDWLNGKEYKCKVSNKGLPAPIEKTISKTKGQPREPQVYTLPPCRDELTKNQVSLWCLVKGFYPSDIAVEWESNGQPENNYKTTPPVLDSDGSFFLYSKLTVDKSRWQQGNVFSCSVMHEALHNHYTQKSLSLSPGK
heavy: EVKLDETGGGLVQPGRPMKLSCVASGFTFSDYWMNWVRQSPEKGLEWVAQIRNKPYNYETYYSDSVKGRFTISRDDSKSSVYLQMNNLRVEDMGIYYCTGSYYGMDYWGQGTSVTVSSASTKGPSVFPLAPSSKSTSGGTAALGCLVKDYFPEPVTVSWNSGALTSGVHTFPAVLQSSGLYSLSSVVTVPSSSLGTQTYICNVNHKPSNTKVDKKVEPKSCDKTHTCPPSPAPPVAGPSVFLFPPKPKDTLMISRTPEVTCVVVDVSHEDPEVQFNWYVDGVEVHNAKTKPREEQFNSTFRVVSVLTVVHQDWLNGKEYKCKVSNKGLPAPIEKTISKTKGQPREPQVCTLPPSRDELTKNQVSLSCAVKGFYPSDIAVEWESNGQPENNYKTTPPVLDSDGSFFLVSKLTVDKSRWQQGNVFSCSVMHEALHNRFTQKSLSLSPGK
light: DVVMTQTPLSLPVSLGDQASISCRSSQSLVHSNGNTYLRWYLQKPGQSPKVLIYKVSNRFSGVPDRFSGSGSGTDFTLKISRVEAEDLGVYFCSQSTHVPWTFGGGTKLEIKRTVAAPSVFIFPPSDEQLKSGTASVVCLLNNFYPREAKVQWKVDNALQSGNSQESVTEQDSKDSTYSLSSTLTLSKADYEKHKVYACEVTHQGLSSPVTKSFNRGEC
notes: structure 2 isotype control; CH2 SG2CH2
[1]
  EC50: 481 nM
[2]
  EC50: 525 nM
[3]
  binding result: no binding

B2: M3IC-G2 (bispecific antibody)
chain 1: EVKLDETGGGLVQPGRPMKLSCVASGFTFSDYWMNWVRQSPEKGLEWVAQIRNKPYNYETYYSDSVKGRFTISRDDSKSSVYLQMNNLRVEDMGIYYCTGSYYGMDYWGQGTSVTVSSASTKGPSVFPLAPSSKSTSGGTAALGCLVKDYFPEPVTVSWNSGALTSGVHTFPAVLQSSGLYSLSSVVTVPSSSLGTQTYICNVNHKPSNTKVDKKVEPKSCGGGGSGGGGSQVQLVESGGGVVQPGRSLRLSCAASGFTFSTYAMNWVRQAPGKGLEWVARIRSKYNNYATYYADSVKDRFTISRDDSKNTLYLQMNSLRAEDTAVYYCARHGNFGNSYVSWFAYWGQGTLVTVSSASVAAPSVFIFPPSDEQLKSGTASVVCLLNNFYPREAKVQWKVDNALQSGNSQESVTEQDSKDSTYSLSSTLTLSKADYEKHKVYACEVTHQGLSSPVTKSFNRGECDKTHTCPPCPAPPVAGPSVFLFPPKPKDTLMISRTPEVTCVVVDVSHEDPEVQFNWYVDGVEVHNAKTKPREEQFNSTFRVVSVLTVVHQDWLNGKEYKCKVSNKGLPAPIEKTISKTKGQPREPQVYTLPPCRDELTKNQVSLWCLVKGFYPSDIAVEWESNGQPENNYKTTPPVLDSDGSFFLYSKLTVDKSRWQQGNVFSCSVMHEALHNHYTQKSLSLSPGK
chain 2: QTVVTQEPSLTVSPGGTVTLTCRSSTGAVTTSNYANWVQQKPGQAPRGLIGGTNKRAPGVPARFSGSLLGGKAALTLSGVQPEDEAEYYCALWYSNLWVFGGGTKVEIKSSASTKGPSVFPLAPSSKSTSGGTAALGCLVKDYFPEPVTVSWNSGALTSGVHTFPAVLQSSGLYSLSSVVTVPSSSLGTQTYICNVNHKPSNTKVDKKVEPKSC
heavy: B1 heavy with S230C
light: B1 light
notes: structure 3 isotype control; CH2 G2CH2
[1]
  EC50: 701 nM
[4]
  binding result: no binding

B3: M3IC-DG2D (bispecific antibody)
chain 1: B2 chain 1 with D507A, D512A
chain 2: B2 chain 2
heavy: B1 heavy with S230C, D265A, D270A
light: B1 light
notes: structure 3 isotype control; CH2 DG2DCH2
[1]
  EC50: 638 nM
[4]
  binding result: no binding

B4: M3IC-AG2 (bispecific antibody)
chain 1: B2 chain 1 with C472A
chain 2: B2 chain 2
heavy: B1 heavy with S230A
light: B1 light
notes: structure 3 isotype control; CH2 AG2CH2
[1]
  EC50: 674 nM
[4]
  binding result: no binding

B5: M3IC-G2D (bispecific antibody)
chain 1: B2 chain 1 with D512A
chain 2: B2 chain 2
heavy: B1 heavy with S230C, D270A
light: B1 light
notes: structure 3 isotype control; CH2 G2DCH2
[1]
  EC50: 607 nM
[4]
  binding result: no binding

B6: M3IC-DG2 (bispecific antibody)
chain 1: B2 chain 1 with D507A
chain 2: B2 chain 2
heavy: B1 heavy with S230C, D265A
light: B1 light
notes: structure 3 isotype control; CH2 DG2CH2
[1]
  EC50: 710 nM
[4]
  binding result: no binding

B7: M3IC-PG2 (bispecific antibody)
chain 1: B2 chain 1 with C472P
chain 2: B2 chain 2
heavy: B1 heavy with S230P
light: B1 light
notes: structure 3 isotype control; CH2 PG2CH2
[1]
  EC50: 696 nM
[4]
  binding result: no binding

B8: M3IC-SG2 (bispecific antibody)
chain 1: B2 chain 1 with C472S
chain 2: B2 chain 2
heavy: B1 heavy
light: B1 light
notes: structure 3 isotype control; CH2 SG2CH2
[1]
  EC50: 677 nM
[4]
  binding result: no binding

B9: M3IC-GG2 (bispecific antibody)
chain 1: B2 chain 1 with C472G
chain 2: B2 chain 2
heavy: B1 heavy with S230G
light: B1 light
notes: structure 3 isotype control; CH2 GG2CH2
[1]
  EC50: 609 nM
[4]
  binding result: no binding
